The labels stand for the following.
T1: recombinant human CD123-Fc (human, UniProt P26951 19-305)
T1 construct: not shown: Fc part of CD123-Fc
T1 sequence: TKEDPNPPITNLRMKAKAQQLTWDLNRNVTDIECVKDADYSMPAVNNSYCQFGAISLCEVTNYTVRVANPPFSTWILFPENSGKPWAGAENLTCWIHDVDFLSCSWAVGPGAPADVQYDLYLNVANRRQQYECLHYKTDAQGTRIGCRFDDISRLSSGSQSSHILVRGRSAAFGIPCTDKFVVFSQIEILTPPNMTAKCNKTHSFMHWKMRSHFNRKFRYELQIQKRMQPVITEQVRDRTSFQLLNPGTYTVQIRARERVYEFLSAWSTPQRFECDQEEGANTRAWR

B1: SEQ ID NO: 494 (designed binder)
chain: MGSWDHFKNDLAWIKKHLEALGGSEAELAEFEAVIAYFELYLQGYKGKGNPEVEALRKEAAAIRDELQAYRHN
notes: D domain, on phage
B2: SEQ ID NO: 461 (designed binder)
chain: MGSWVTFKDELADIKDFLEALGGSEAELAFFEVDIAEFEAELQFYKGKGNPEVEALRKEAAAIRDELQAYRHN
notes: D domain, on phage
B3: SEQ ID NO: 465 (designed binder)
chain: MGSWYVFKDELAEIKQFLEALGGSEAELAWFEDDIAEFETQLQHYKGKGNPEVEALRKEAAAIRDELQAYRHN
notes: D domain, on phage
B4: SEQ ID NO: 462 (designed binder)
chain: MGSWVYFKDELADIKDFLEALGGSEAELAEFEEDIATFEYDLQWYKGKGNPEVEALRKEAAAIRDELQAYRHN
notes: D domain, on phage
B5: SEQ ID NO: 475 (designed binder)
chain: MGSWSWFKEDLAEIKMELEALGGSEAELAYFEWYIAEFEFQLQHYKGKGNPEVEALRKEAAAIRDELQAYRHN
notes: D domain, on phage
B6: SEQ ID NO: 477 (designed binder)
chain: MGSWSWFKEDLADIKFELEALGGSEAELAWFELDIADFEQALQQYKGKGNPEVEALRKEAAAIRDELQAYRHN
notes: D domain, on phage
B7: SEQ ID NO: 491 (designed binder)
chain: MGSWYIFKEDLAEIKEELEALGGSEAELAYFEEEIALFEMELQWYKGKGNPEVEALRKEAAAIRDELQAYRHN
notes: D domain, on phage
B8: SEQ ID NO: 478 (designed binder)
chain: MGSWSWFKEDLASIKAVLEALGGSEAELAFFESDIAEFEQELQYYKGKGNPEVEALRKEAAAIRDELQAYRHN
notes: D domain, on phage
B9: SEQ ID NO: 460 (designed binder)
chain: MGSWHLFKWTLAEIKYELEALGGSEAELAWFEDDIATFEEELQWYKGKGNPEVEALRKEAAAIRDELQAYRHN
notes: D domain, on phage
B10: SEQ ID NO: 463 (designed binder)
chain: MGSWETFKYELAEIKDYLEALGGSEAELAWFEDDIAEFEFELQYYKGKGNPEVEALRKEAAAIRDELQAYRHN
notes: D domain, on phage
B11: SEQ ID NO: 464 (designed binder)
chain: MGSWNTFKYELAEIKHFLEALGGSEAELAMFEDDIAMFEWELQEYKGKGNPEVEALRKEAAAIRDELQAYRHN
notes: D domain, on phage
B12: SEQ ID NO: 467 (designed binder)
chain: MGSWEFFKEVLAEIKYDLEALGGSEAELAWFETDIAGFEIDLQVYKGKGNPEVEALRKEAAAIRDELQAYRHN
notes: D domain, on phage
B13: SEQ ID NO: 468 (designed binder)
chain: MGSWVFFKEDLATIKNDLEALGGSEAELAWFEMMIADFEADLQYYKGKGNPEVEALRKEAAAIRDELQAYRHN
notes: D domain, on phage
B14: SEQ ID NO: 487 (designed binder)
chain: MGSWMEFKEELAEIKYILEALGGSEAELAWFEQSIADFEYDLQDYKGKGNPEVEALRKEAAAIRDELQAYRHN
notes: D domain, on phage
B15: SEQ ID NO: 493 (designed binder)
chain: MGSWQDFKEDLAWIKYELEALGGSEAELAFFEYDIAIFENNLQHYKGKGNPEVEALRKEAAAIRDELQAYRHN
notes: D domain, on phage
B16: SEQ ID NO: 459 (designed binder)
chain: MGSWIFFKQDLAEIKLNLEALGGSEAELAWFEDDIAWFESHLQDYKGKGNPEVEALRKEAAAIRDELQAYRHN
notes: D domain, on phage
B17: SEQ ID NO: 476 (designed binder)
chain: MGSWSWFKQDLADIKIQLEALGGSEAELAWFEWDIAEFEFELQDYKGKGNPEVEALRKEAAAIRDELQAYRHN
notes: D domain, on phage
B18: SEQ ID NO: 482 (designed binder)
chain: MGSWTFFKDDLAEIKWMLEALGGSEAELAWFESDIAYFEDELQWYKGKGNPEVEALRKEAAAIRDELQAYRHN
notes: D domain, on phage
B19: SEQ ID NO: 471 (designed binder)
chain: MGSWFWFKEDLAFIKEDLEALGGSEAELAWFEDGIAFFEWDLQDYKGKGNPEVEALRKEAAAIRDELQAYRHN
notes: D domain, on phage
B20: SEQ ID NO: 474 (designed binder)
chain: MGSWNWFKEDLAIIKMDLEALGGSEAELAWFEHNIAGFEFELQGYKGKGNPEVEALRKEAAAIRDELQAYRHN
notes: D domain, on phage
B21: SEQ ID NO: 473 (designed binder)
chain: MGSWHWFKEDLAIIKQDLEALGGSEAELATFEQWIAEFEWDLQEYKGKGNPEVEALRKEAAAIRDELQAYRHN
notes: D domain, on phage
B22: SEQ ID NO: 489 (designed binder)
chain: MGSWYEFKFDLAEIKEQLEALGGSEAELALFEDDIAFFEYDLQNYKGKGNPEVEALRKEAAAIRDELQAYRHN
notes: D domain, on phage
B23: SEQ ID NO: 472 (designed binder)
chain: MGSWQWFKEDLAEIKHDLEALGGSEAELAWFEDFIAQFEFDLQWYKGKGNPEVEALRKEAAAIRDELQAYRHN
notes: D domain, on phage
B24: SEQ ID NO: 466 (designed binder)
chain: MGSWIFFKEQLAIIKWELEALGGSEAELAWFEDDIAAFEDDLQFYKGQGNPEVEALRKEAAAIRDELQAYRHN
notes: D domain, on phage
B25: SEQ ID NO: 496 (designed binder)
chain: MGSWYMFKEELADIKWYLEALGGSEAELAWFEDDIAGFEWDLQAYKGKGNPEVEALRKEAAAIRDELQAYRHN
notes: D domain, on phage
B26: SEQ ID NO: 469 (designed binder)
chain: MGSWEEFKEDLAEIKVWLEALGGSEAELAWFEMGIADFEDGLQFYKGKGNPEVEALRKEAAAIRDELQAYRHN
notes: D domain, on phage
B27: SEQ ID NO: 479 (designed binder)
chain: MGSWWEFKEDLAEIKWFLEALGGSEAELAWFEHDIAKFEFELQYYKGKGNPEVEALRKEAAAIRDELQAYRHN
notes: D domain, on phage
B28: SEQ ID NO: 470 (designed binder)
chain: MGSWHWFKEDLANIKDWLEALGGSEAELAWFEDNIADFEGDLQVYKGKGNPEVEALRKEAAAIRDELQAYRHN
notes: D domain, on phage
B29: SEQ ID NO: 488 (designed binder)
chain: MGSWAWFKEDLAEIKVFLEALGGSEAELAEFEVSIADFEYELQDYKGKGNPEVEALRKEAAAIRDELQAYRHN
notes: D domain, on phage
B30: SEQ ID NO: 457 (designed binder)
chain: MGSWNSFKDELAEIKAELEALGGSEAELAFFEEDIAWFEEHLQQYKGKGNPEVEALRKEAAAIRDELQAYRHN
notes: D domain, on phage
B31: SEQ ID NO: 458 (designed binder)
chain: MGSWDLFKWELAEIKLGLEALGGSEAELAEFEYDIAWFEEDLQDYKGKGNPEVEALRKEAAAIRDELQAYRHN
notes: D domain, on phage
B32: SEQ ID NO: 481 (designed binder)
chain: MGSWNEFKDDLAMIKMTLEALGGSEAELAWFEHDIAEFEDDLQWYKGKGNPEVEALRKEAAAIRDELQAYRHN
notes: D domain, on phage
B33: SEQ ID NO: 480 (designed binder)
chain: MGSWEWFKSDLASIKWELEALGGSEAELAWFEHDIAEFEEDLQWYKGKGNPEVEALRKEAAAIRDELQAYRHN
notes: D domain, on phage
B34: SEQ ID NO: 485 (designed binder)
chain: MGSWQYFKDDLAEIKMVLEALGGSEAELAWFEADIAMFEDDLQIYKGKGNPEVEALRKEAAAIRDELQAYRHN
notes: D domain, on phage
B35: SEQ ID NO: 484 (designed binder)
chain: MGSWSMFKDDLAEIKASLEALGGSEAELAWFEDDIAWFEDDLQHYKGKGNPEVEALRKEAAAIRDELQAYRHN
notes: D domain, on phage
B36: SEQ ID NO: 483 (designed binder)
chain: MGSWSDFKDDLAEIKMILEALGGSEAELAYFENDIAWFEDDLQEYKGKGNPEVEALRKEAAAIRDELQAYRHN
notes: D domain, on phage
B37: SEQ ID NO: 492 (designed binder)
chain: MGSWVLFKEELAYIKFELEALGGSEAELALFENVIAIFESNLQNYKGKGNPEVEALRKEAAAIRDELQAYRHN
notes: D domain, on phage
B38: SEQ ID NO: 486 (designed binder)
chain: MGSWSFFKDDLAEIKYFLEALGGSEAELAMFEQTIAEFEYDLQDYKGKGNPEVEALRKEAAAIRDELQAYRHN
notes: D domain, on phage
B39: SEQ ID NO: 490 (designed binder)
chain: MGSWYDFKYDLAEIKMDLEALGGSEAELAQFEFDIAFFEEELQDYKGKGNPEVEALRKEAAAIRDELQAYRHN
notes: D domain, on phage
B40: SEQ ID NO: 495 (designed binder)
chain: MGSWYDFKEDLADIKWMLEALGGSEAELAEFENVIAYFENDLQEYKGKGNPEVEALRKEAAAIRDELQAYRHN
notes: D domain, on phage

Among the data in patent US20230125550A1 (ARCELLX, published 2023) are ELISA_avg values, retold here.

The target in the experiment is T1, recombinant human CD123-Fc. The experiment is described as follows: phage ELISA, captured CD123-Fc. The gist of the method: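 Phage from BCMA panning colonies were rescued with VCSM13 helper phage and diluted 5× in blocking buffer. Plates coated with anti-human IgG1-Fc captured 5 nM target-Fc or IgG1-Fc, and binding was detected with HRP anti-M13. Ratio = A450 target/A450 IgG1-Fc, averaged over the clone's wells.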
(An ELISA detects its analyte on a solid surface through an enzyme-linked reagent.)
As to B1, the ELISA_avg was found to be 3.3 ratio A450 target/IgG1-Fc.

In the case of B2, the ELISA_avg came to 7.6 ratio A450 target/IgG1-Fc.

B3: the ELISA_avg was found to be 9.9 ratio A450 target/IgG1-Fc.

Regarding B4, the ELISA_avg is 4.6 ratio A450 target/IgG1-Fc.

B5: the ELISA_avg is 4.8 ratio A450 target/IgG1-Fc.

Consider B6, for which the ELISA_avg turned out to be 6.8 ratio A450 target/IgG1-Fc.

Regarding B7, the ELISA_avg was found to be 11.1 ratio A450 target/IgG1-Fc.

As to B8, the ELISA_avg amounted to 6.9 ratio A450 target/IgG1-Fc.

B9: the ELISA_avg was 4 ratio A450 target/IgG1-Fc.

Turning to B10, the ELISA_avg was determined as 4.4 ratio A450 target/IgG1-Fc.

Take B11: the ELISA_avg is 5 ratio A450 target/IgG1-Fc.

In the case of B12, the ELISA_avg is 8.2 ratio A450 target/IgG1-Fc.

Take B13: the ELISA_avg was 3.1 ratio A450 target/IgG1-Fc.

Regarding B14, the ELISA_avg was 5 ratio A450 target/IgG1-Fc.

In the case of B15, the ELISA_avg worked out at 3.2 ratio A450 target/IgG1-Fc.

As for B16, the ELISA_avg is 3.8 ratio A450 target/IgG1-Fc.

On to B17, for which the ELISA_avg is 4 ratio A450 target/IgG1-Fc.

Turning to B18, the ELISA_avg was found to be 3.3 ratio A450 target/IgG1-Fc.

As to B19, the ELISA_avg came to 13.7 ratio A450 target/IgG1-Fc.

For the molecule B20, the ELISA_avg is 3.1 ratio A450 target/IgG1-Fc.

In the case of B21, the ELISA_avg stood at 5.5 ratio A450 target/IgG1-Fc.

Turning to B22, the ELISA_avg amounted to 4.6 ratio A450 target/IgG1-Fc.

With B23, the ELISA_avg stood at 3.8 ratio A450 target/IgG1-Fc.

As for B24, the ELISA_avg was 15 ratio A450 target/IgG1-Fc.

As for B25, the ELISA_avg worked out at 7 ratio A450 target/IgG1-Fc.

On to B26, for which the ELISA_avg came out at 4.3 ratio A450 target/IgG1-Fc.

On to B27, for which the ELISA_avg worked out at 5.1 ratio A450 target/IgG1-Fc.

Take B28: the ELISA_avg was determined as 3.3 ratio A450 target/IgG1-Fc.

B29: the ELISA_avg was determined as 3.5 ratio A450 target/IgG1-Fc.

On to B30, for which the ELISA_avg came to 3.3 ratio A450 target/IgG1-Fc.

B31: the ELISA_avg is 3.4 ratio A450 target/IgG1-Fc.

On to B32, for which the ELISA_avg worked out at 3.5 ratio A450 target/IgG1-Fc.

With B33, the ELISA_avg was 5.7 ratio A450 target/IgG1-Fc.

As to B34, the ELISA_avg came to 3.6 ratio A450 target/IgG1-Fc.

For the molecule B35, the ELISA_avg worked out at 5.2 ratio A450 target/IgG1-Fc.

As to B36, the ELISA_avg is 4.7 ratio A450 target/IgG1-Fc.

Turning to B37, the ELISA_avg was determined as 3.5 ratio A450 target/IgG1-Fc.

Regarding B38, the ELISA_avg turned out to be 10.1 ratio A450 target/IgG1-Fc.

As for B39, the ELISA_avg is 3.2 ratio A450 target/IgG1-Fc.

Consider B40, for which the ELISA_avg worked out at 8 ratio A450 target/IgG1-Fc.
